Results: patent US20150025225A1 (SHIONOGI, published 2015)
Where a chain is given by its changes, count along the chain named.

Legend:
Baboon EL-C2 tag [1] = biological target: T1, Baboon EL-C2 tag (baboon, UniProt Q9Y5X9 21-500 (human entry), limits assumed); experiment: Biacore SPR; EL heparin extract captured by anti-C2-tag antibody on CM5, antibody as analyte, bivalent fit
T1 construct: used as heparin extract of transfected HEK293F cells; also called baboon EL heparin extract
T1 chain: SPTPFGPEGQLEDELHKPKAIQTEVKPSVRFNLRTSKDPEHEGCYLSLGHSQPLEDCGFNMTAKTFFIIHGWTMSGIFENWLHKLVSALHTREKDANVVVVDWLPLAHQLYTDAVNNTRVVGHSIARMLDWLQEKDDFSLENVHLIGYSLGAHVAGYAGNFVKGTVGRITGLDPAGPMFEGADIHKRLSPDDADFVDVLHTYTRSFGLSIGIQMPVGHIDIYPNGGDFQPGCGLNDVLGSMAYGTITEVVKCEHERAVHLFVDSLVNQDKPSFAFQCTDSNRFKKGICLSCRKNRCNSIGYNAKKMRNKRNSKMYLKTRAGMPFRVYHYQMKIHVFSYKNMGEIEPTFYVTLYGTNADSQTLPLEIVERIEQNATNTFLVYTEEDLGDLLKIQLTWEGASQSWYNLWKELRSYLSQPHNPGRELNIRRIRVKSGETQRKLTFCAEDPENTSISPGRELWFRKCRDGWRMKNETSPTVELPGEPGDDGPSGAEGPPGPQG
Protocol: (§1) The binding affinities of anti-EL antibodies were measured using Biacore. Anti-C2-tag antibody was immobilized on a sensor chip CM5 (GE HealthCare) using amine-coupling and baboon EL heparin extract or cynomolgus monkey heparin extract diluted with HBS-P (GE Healthcare) was added and EL were captured on the sensor chip. Then anti-EL antibodies diluted with HBS-P were added and the binding affinities were calculated by bivalent fitting of BIAevaluation software (FIG. 9A-G).

[2] = biological target: T2, cynomolgus monkey EL-C2 tag (cynomolgus monkey, UniProt Q9Y5X9 21-500 (human entry), limits assumed); experiment: as above
T2 construct: used as heparin extract of transfected HEK293F cells; also called cynomolgus EL
T2 chain: T1 chain with E12A, E141G
Protocol: as §1

Baboon EL-C2 tag [3] = biological target: T1, Baboon EL-C2 tag; experiment: Biacore SPR; EL captured by anti-C2-tag antibody, antibody as analyte, bivalent fit; column head prints nM, kd/ka gives M
Protocol: as §1

[4] = biological target: T2, cynomolgus monkey EL-C2 tag; experiment: as above
Protocol: as §1

rabbit EL-C2 tag = biological target: T3, rabbit EL-C2 tag (rabbit); experiment: cell-based or functional assay
T3 chain: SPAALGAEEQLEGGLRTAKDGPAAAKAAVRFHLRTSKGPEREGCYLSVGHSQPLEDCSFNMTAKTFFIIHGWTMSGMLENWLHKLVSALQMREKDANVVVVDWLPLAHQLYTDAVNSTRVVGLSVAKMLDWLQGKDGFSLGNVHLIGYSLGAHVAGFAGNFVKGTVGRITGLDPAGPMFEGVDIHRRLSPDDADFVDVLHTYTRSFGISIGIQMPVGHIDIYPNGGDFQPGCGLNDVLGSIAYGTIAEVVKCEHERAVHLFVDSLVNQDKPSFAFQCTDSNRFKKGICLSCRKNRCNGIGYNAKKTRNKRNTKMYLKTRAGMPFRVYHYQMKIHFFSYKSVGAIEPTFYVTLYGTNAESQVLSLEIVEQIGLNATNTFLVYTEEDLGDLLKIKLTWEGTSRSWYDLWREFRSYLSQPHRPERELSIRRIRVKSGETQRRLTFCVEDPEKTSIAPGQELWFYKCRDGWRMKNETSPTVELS

Baboon EL-C2 tag [5] = biological target: T1, Baboon EL-C2 tag; experiment: cell-based or functional assay
[6] = biological target: T4, human EL[331-459]-mouse EL-C2 tag (human/mouse chimera, UniProt Q9WVG5 21-500 (mouse entry)); experiment: cell-based or functional assay
T4 chain: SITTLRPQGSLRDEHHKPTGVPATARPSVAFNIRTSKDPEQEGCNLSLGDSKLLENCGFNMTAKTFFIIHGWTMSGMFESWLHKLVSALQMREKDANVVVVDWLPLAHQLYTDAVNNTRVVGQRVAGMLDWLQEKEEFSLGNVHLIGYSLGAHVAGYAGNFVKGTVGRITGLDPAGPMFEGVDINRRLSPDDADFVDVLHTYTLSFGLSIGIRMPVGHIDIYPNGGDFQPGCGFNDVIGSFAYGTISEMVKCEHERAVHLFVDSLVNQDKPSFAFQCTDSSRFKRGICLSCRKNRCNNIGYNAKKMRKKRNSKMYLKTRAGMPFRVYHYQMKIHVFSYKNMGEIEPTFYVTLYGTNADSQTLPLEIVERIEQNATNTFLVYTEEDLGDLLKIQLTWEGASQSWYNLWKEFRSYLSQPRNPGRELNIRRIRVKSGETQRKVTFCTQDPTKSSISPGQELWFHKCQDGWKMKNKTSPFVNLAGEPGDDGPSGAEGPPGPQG

[7] = biological target: T2, cynomolgus monkey EL-C2 tag; experiment: cell-based or functional assay

B1: 12B10 antibody (antibody, IgG2a, V domains shown)
VH: QVTLKESGPGILKPSQTLSLTCSFSGFSLSTSGMGVGWIRQPSGKGLEWLAHIWWNDEKYYNPSLKSQLTISKDTSRNQVFLKITSVDTADTATYYCARSYDGSPFPSWGQGTLVTVSA
VL: DIQMTQSPSSLSASLGGKVTITCKASQDINKYIAWFQHKPGKGPRLLMAYPFTLQPGIPSRFSGNGSGRDYSFSISNLEPEDIATYYCLQYDNLLWTFGGGTRLEIK
- koff (Baboon EL-C2 tag [1]): 0.00021 s⁻¹
- kon (Baboon EL-C2 tag [1]): 350000 M⁻¹ s⁻¹
- koff [2]: 0.00018 s⁻¹
- kon [2]: 880000 M⁻¹ s⁻¹
- Kd (Baboon EL-C2 tag [3]): 0.6 nM
- Kd [4]: 0.2 nM
- Neutralizing activity_IC50 (rabbit EL-C2 tag): 201 nM
- Neutralizing activity_IC50 (Baboon EL-C2 tag [5]): 7.1 nM
- Neutralizing activity_IC50 [6]: 15 nM
- Neutralizing activity_IC50 [7]: 6.2 nM

B2: 47B2 antibody (antibody, IgG2a, V domains shown)
VH: QVALKESGPGILQPSQTLSLTCSFSGFSLSTSGMGVGWIRQPSGKGLEWLAHIWWHGNKYYSTGLKSRLTISKDTSNNQVFLKIASVDTADTATYYCARISAGYPLDYWGQGTSVTVSS
VL: DIQMTQSPSSLSASLGGKVTITCKASQDINKYIVWYQHKPGKGPRLLIHYTSTLQPGFPSRFSGSGSGRDYSLSITNLEPEDIATYYCLQYDNLLWTFGGGTKLEIK
- koff (Baboon EL-C2 tag [1]): 0.00056 s⁻¹
- kon (Baboon EL-C2 tag [1]): 140000 M⁻¹ s⁻¹
- koff [2]: 0.00033 s⁻¹
- kon [2]: 250000 M⁻¹ s⁻¹
- Kd (Baboon EL-C2 tag [3]): 4 nM
- Kd [4]: 1.3 nM
- Neutralizing activity_IC50 (rabbit EL-C2 tag): 37 nM
- Neutralizing activity_IC50 (Baboon EL-C2 tag [5]): 4.6 nM
- Neutralizing activity_IC50 [6]: 5.3 nM
- Neutralizing activity_IC50 [7]: 4.7 nM
